Experimental data from article PMC11392403.

Biological target: recombinant Fasciola hepatica enolase (rFhENO) (Fasciola hepatica) (UniProt Q27655)
Assay: SEC; Superdex 75 10/300 GL, 0.4 mL/min, 100 μg rFhENO injected; markers carbonic anhydrase 29 kDa, BSA 66 kDa, alcohol dehydrogenase 150 kDa; dimer to monomers

recombinant Fasciola hepatica enolase (rFhENO) (from UniProt Q27655 1-431) (enzyme)
percent of the protein eluting in the homodimeric form: 86.5%
stoichiometry N: 2
